± gives the standard deviation of the averaged measurements.
Test: total protein half-life in vivo (active degradation + dilution); higher = more stable protein
[1] = wild type E. coli NCM3722, growth: C-lim chemostat, doubling time 3 h
[2] = wild type E. coli NCM3722, growth: C-lim chemostat, doubling time 6 h
[3] = wild type E. coli NCM3722, growth: C-lim chemostat, doubling time 12 h
[4] = E. coli NCM3722 delta-clpP, growth: N-lim chemostat, doubling time 6 h
[5] = E. coli NCM3722 delta-hslV, growth: N-lim chemostat, doubling time 6 h
[6] = E. coli NCM3722 delta-lon, growth: N-lim chemostat, doubling time 6 h
[7] = E. coli NCM3722 delta-smpB, growth: N-lim chemostat, doubling time 6 h
[8] = wild type E. coli NCM3722, growth: N-lim chemostat, doubling time 6 h
[9] = wild type E. coli NCM3722, growth: N-lim chemostat, doubling time 12 h
[10] = wild type E. coli NCM3722, growth: P-lim chemostat, doubling time 6 h
[11] = wild type E. coli NCM3722, growth: P-lim chemostat, doubling time 12 h
[12] = E. coli NCM3722 delta-clpP delta-lon delta-hslV, growth: N-lim chemostat, doubling time 6 h

Row | Sequence | total protein half-life in vivo [1] | total protein half-life in vivo [2] | total protein half-life in vivo [3] | total protein half-life in vivo [4] | total protein half-life in vivo [5] | total protein half-life in vivo [6] | total protein half-life in vivo [7] | total protein half-life in vivo [8] | total protein half-life in vivo [9] | total protein half-life in vivo [10] | total protein half-life in vivo [11] | total protein half-life in vivo [12]
1 | MNTTPSQRLGFLHHIRLVPLFACILGGILVLFALSSALAGYFLWQADRDQRDVTAEIEIRTGLANSSDFLRSARINMIQAGAASRIAEMEAMKRNIAQAESEIKQSQQGYRAYQNRPVKTPADEALDTELNQRFQAYITGMQPMLKYAKNGMFEAIINHESEQIRPLDNAYTDILNKAVKIRSTRANQLAELAHQRTRLGGMFMIGAFVLALVMTLITFMVLRRIVIRPLQHAAQRIEKIASGDLTMNDEPAGRNEIGRLSRHLQQMQHSLGMTVGTVRQGAEEIYRGTSEISAGNADLSSRTEEQAAAIEQTAASMEQLTATVKQNADNAHHASKLAQEASIKASDGGQTVSGVVKTMGAISTSSKKISEITAVINSIAFQTNILALNAAVEAARAGEQGRGFAVVASEVRTLASRSAQAAKEIEGLISESVRLIDLGSDEVATAGKTMSTIVDAVASVTHIMQEIAAASDEQSRGITQVSQAISEMDKVTQQNASLVEEASAAAVSLEEQAARLTEAVDVFRLHKHSVSAEPRGAGEPVSFATV | 2.39 ± 0.0043 h | 4.42 ± 0.23 h | 6.36 ± 0.25 h |  |  |  |  |  |  |  |  | 
2 | MSGWPRIYYKLLNLPLSILVKSKSIPADPAPELGLDTSRPIMYVLPYNSKADLLTLRAQCLAHDLPDPLEPLEIDGTLLPRYVFIHGGPRVFTYYTPKEESIKLFHDYLDLHRSNPNLDVQMVPVSVMFGRAPGREKGEVNPPLRMLNGVQKFFAVLWLGRDSFVRFSPSVSLRRMADEHGTDKTIAQKLARVARMHFARQRLAAVGPRLPARQDLFNKLLASRAIAKAVEDEARSKKISHEKAQQNAIALMEEIAANFSYEMIRLTDRILGFTWNRLYQGINVHNAERVRQLAHDGHELVYVPCHRSHMDYLLLSYVLYHQGLVPPHIAAGINLNFWPAGPIFRRLGAFFIRRTFKGNKLYSTVFREYLGELFSRGYSVEYFVEGGRSRTGRLLDPKTGTLSMTIQAMLRGGTRPITLIPIYIGYEHVMEVGTYAKELRGATKEKESLPQMLRGLSKLRNLGQGYVNFGEPMPLMTYLNQHVPDWRESIDPIEAVRPAWLTPTVNNIAADLMVRINNAGAANAMNLCCTALLASRQRSLTREQLTEQLNCYLDLMRNVPYSTDSTVPSASASELIDHALQMNKFEVEKDTIGDIIILPREQAVLMTYYRNNIAHMLVLPSLMAAIVTQHRHISRDVLMEHVNVLYPMLKAELFLRWDRDELPDVIDALANEMQRQGLITLQDDELHINPAHSRTLQLLAAGARETLQRYAITFWLLSANPSINRGTLEKESRTVAQRLSVLHGINAPEFFDKAVFSSLVLTLRDEGYISDSGDAEPAETMKVYQLLAELITSDVRLTIESATQGEG [P0A7A7] | 3.37 ± 0.17 h | 6.4 ± 0.11 h | 12.2 ± 1.3 h | 7.2 ± 0.25 h | 6.63 ± 0.61 h | 6.38 ± 0.65 h | 6.36 ± 0.2 h | 6.249 ± 0.032 h | 13.3 ± 0.35 h | 6.79 ± 0.28 h | 13.4 ± 1.5 h | 
3 | MSHYHEQFLKQNPLAVLGVLRDLHKAAIPLRLSWNGGQLISKLLAITPDKLVLDFGSQAEDNIAVLKAQHITITAETQGAKVEFTVEQLQQSEYLQLPAFITVPPPTLWFVQRRRYFRISAPLHPPYFCQTKLADNSTLRFRLYDLSLGGMGALLETAKPAELQEGMRFAQIEVNMGQWGVFHFDAQLISISERKVIDGKNETITTPRLSFRFLNVSPTVERQLQRIIFSLEREAREKADKVRD | 1.21 ± 0.24 h | 1.87 ± 0.3 h | 2.88 ± 0.52 h |  |  |  | > 8 h |  |  |  |  | 5.94 ± 0.77 h
4 | MSELKISPELLQISPEVQDALKNKKPVVALESTIISHGMPFPQNAQTAIEVEETIRKQGAVPATIAIIGGVMKVGLSKEEIELLGREGHNVTKVSRRDLPFVVAAGKNGATTVASTMIIAALAGIKVFATGGIGGVHRGAEHTFDISADLQELANTNVTVVCAGAKSILDLGLTTEYLETFGVPLIGYQTKALPAFFCRTSPFDVSIRLDSASEIARAMVVKWQSGLNGGLVVANPIPEQFAMPEHTINAAIDQAVAEAEAQGVIGKESTPFLLARVAELTGGDSLKSNIQLVFNNAILASEIAKEYQRLAG | 2.56 ± 0.11 h | 4.42 ± 0.53 h | 6.33 ± 0.81 h |  |  |  | 1.52 ± 0.068 h |  |  |  | 4.2 h | 
5 | MRGKILLYQLKYRWQSLSIFGCFLCKMTLFRYQKIIYDTGVHQMRSFFYTICSSEQQESITDHHSLAEICQKFNILPEHVVIEQVDIKEVVSEQRLLRQLIHHEMNRQDTLVIPDLSCLGRTVEDLQNILFFCLQKEMFIYSYHPASRIEPSAESCLSFLIARQDTIDIHNLKSTKSRYRHVKKKLGRKEGSKYRRDITILKKGGFTQAEIAKKLSISLSTVKRHWNNGIIG |  |  |  |  |  |  |  |  |  |  |  | 6.03 h
6 | MTEIVADKTVEVVKNAIETADGALDLYNKYLDQVIPWQTFDETIKELSRFKQEYSQAASVLVGDIKTLLMDSQDKYFEATQTVYEWCGVATQLLAAYILLFDEYNEKKASAQKDILIKVLDDGITKLNEAQKSLLVSSQSFNNASGKLLALDSQLTNDFSEKSSYFQSQVDKIRKEAYAGAAAGVVAGPFGLIISYSIAAGVVEGKLIPELKNKLKSVQNFFTTLSNTVKQANKDIDAAKLKLTTEIAAIGEIKTETETTRFYVDYDDLMLSLLKEAAKKMINTCNEYQKRHGKKTLFEVPEV | 3.15 ± 0.65 h | 4.71 ± 0.94 h | 6.71 ± 1.1 h | 4.37 ± 0.14 h | 3.54 ± 0.068 h | 3.77 ± 0.13 h | 2.84 ± 0.25 h | 3.2 ± 0.039 h | 5.29 ± 0.62 h | 4.11 ± 0.63 h | 7.49 ± 0.36 h | 4.51 ± 0.82 h
7 | MSTQYETQGYTINNAGRRLVVDPITRIEGHMRCEVNINDQNVITNAVSCGTMFRGLEIILQGRDPRDAWAFVERICGVCTGVHALASVYAIEDAIGIKVPDNANIIRNIMLATLWCHDHLVHFYQLAGMDWIDVLDALKADPRKTSELAQSLSSWPKSSPGYFFDVQNRLKKFVEGGQLGIFRNGYWGHPQYKLPPEANLMGFAHYLEALDFQREIVKIHAVFGGKNPHPNWIVGGMPCAINIDESGAVGAVNMERLNLVQSIITRTADFINNVMIPDALAIGQFNKPWSEIGTGLSDKCVLSYGAFPDIANDFGEKSLLMPGGAVINGDFNNVLPVDLVDPQQVQEFVDHAWYRYPNDQVGRHPFDGITDPWYNPGDVKGSDTNIQQLNEQERYSWIKAPRWRGNAMEVGPLARTLIAYHKGDAATVESVDRMMSALNLPLSGIQSTLGRILCRAHEAQWAAGKLQYFFDKLMTNLKNGNLATASTEKWEPATWPTECRGVGFTEAPRGALGHWAAIRDGKIDLYQCVVPTTWNASPRDPKGQIGAYEAALMNTKMAIPEQPLEILRTLHSFDPCLACSTHVLGDDGSELISVQVR [P0ACD8] |  |  |  |  |  |  |  |  |  |  |  | 4.51 ± 0.84 h
8 | MQAYFDQLDRVRYEGSKSSNPLAFRHYNPDELVLGKRMEEHLRFAACYWHTFCWNGADMFGVGAFNRPWQQPGEALALAKRKADVAFEFFHKLHVPFYCFHDVDVSPEGASLKEYINNFAQMVDVLAGKQEESGVKLLWGTANCFTNPRYGAGAATNPDPEVFSWAATQVVTAMEATHKLGGENYVLWGGREGYETLLNTDLRQEREQLGRFMQMVVEHKHKIGFQGTLLIEPKPQEPTKHQYDYDAATVYGFLKQFGLEKEIKLNIEANHATLAGHSFHHEIATAIALGLFGSVDANRGDAQLGWDTDQFPNSVEENALVMYEILKAGGFTTGGLNFDAKVRRQSTDKYDLFYGHIGAMDTMALALKIAARMIEDGELDKRIAQRYSGWNSELGQQILKGQMSLADLAKYAQEHHLSPVHQSGRQEQLENLVNHYLFDK | 2.93 ± 0.26 h | 4.84 ± 0.15 h | 8.63 ± 0.81 h |  | 2.75 h |  |  | 3.53 h |  | 5.81 ± 0.47 h | 11.6 ± 0.51 h | 4.53 ± 0.48 h

Source: the supplement of paper PMC11246515
